B1: Mothers against decapentaplegic homolog 4 (Homo sapiens), Q13485 (parent)
chain: MDNMSITNTPTSNDACLSIVHSLMCHRQGGESETFAKRAIESLVKKLKEKKDELDSLITAITTNGAHPSKCVTIQRTLDGRLQVAGRKGFPHVIYARLWRWPDLHKNELKHVKYCQYAFDLKCDSVCVNPYHYERVVSPGIDLSGLTLQSNAPSSMMVKDEYVHDFEGQPSLSTEGHSIQTIQHPPSNRASTETYSTPALLAPSESNATSTANFPNIPVASTSQPASILGGSHSEGLLQIASGPQPGQQQNGFTGQPATYHHNSTTTWTGSRTAPYTPNLPHHQNGHLQHHPPMPPHPGHYWPVHNELAFQPPISNHPAPEYWCSIAYFEMDVQVGETFKVPSSCPIVTVDGYVDPSGGDRFCLGQLSNVHRTEAIERARLHIGKGVQLECKGEGDVWVRCLSDHAVFVQSYYLDREAGRAPGDAVHKIYPSAYIKVFDLRQCHRQMQQQAATAQAAAAAQAAAVAGNIPGPGSVGGIAPAISLSAAAGIGVDDLRRLCILRMSFVKGWGPDYPRQSIKETPCWIEIHLHRALQLLDEVLHTMPIADPQPLD

The values that follow come from IntAct's records for PubMed 39243984.

One test covers variants of B1. The following applies: with smad3_human SMAD3, P84022.
Sequence of smad3_human SMAD3, P84022 (P84022 whole entry, looked up): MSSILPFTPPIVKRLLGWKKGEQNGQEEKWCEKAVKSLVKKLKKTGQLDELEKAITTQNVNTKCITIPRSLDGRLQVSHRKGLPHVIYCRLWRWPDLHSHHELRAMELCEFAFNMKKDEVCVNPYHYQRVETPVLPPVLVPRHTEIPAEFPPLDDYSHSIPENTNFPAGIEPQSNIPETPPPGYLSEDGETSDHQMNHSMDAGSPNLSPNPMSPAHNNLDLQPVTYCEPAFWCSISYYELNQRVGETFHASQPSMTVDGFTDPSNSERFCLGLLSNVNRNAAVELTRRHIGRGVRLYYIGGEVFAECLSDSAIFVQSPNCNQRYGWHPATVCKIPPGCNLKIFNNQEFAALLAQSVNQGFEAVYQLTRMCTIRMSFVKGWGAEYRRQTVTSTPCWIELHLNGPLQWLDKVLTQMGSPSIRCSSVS
Turning to I500V, the “effect of a mutation on the interaction” value was “increasing interaction strength”.

The variants in a further test derive from B1. Conditions: with smad3_human SMAD3, P84022. This is another data set of the same source.
As to R361C, the “effect of a mutation on the interaction” value is reported as “decreasing interaction strength”. Same read-out and setting: as for R361H, the entry is “decreasing interaction strength”.
